The data set deals with MS2 coat protein. The experiment in a line: apparent KD of MS2 coat protein; higher = weaker reporter binding. The conditions noted are these: Eterna round: R107. The method, boiled down:
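Designed RNA switches were transcribed on-chip from Illumina sequencing clusters and titrated with SNAP-549-labelled MS2 coat protein in twofold steps from 0.7 or 1.5 nM up to 3 µM. Each step lasted 0.8–1.5 h at first and 10–20 min by the end, in 100 mM Tris-HCl pH 7.5, 80 mM KCl and 4 mM MgCl2, without or with constant ligand. Apparent KD is the median, for each design, of fits to normalised cluster binding curves.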

Where [1] appears, read: input ligand: theophylline 20 uM.
[2] abbreviates: input ligand: theophylline 2 mM.
Where [3] appears, read: input ligand: tryptophan 2.4 mM.

In the case of “GCUAGUGGCAGAAGGAGCGACAUUUAUAGUGGUCGAUACAUGAGGAUCACCCAUGUACUAUGUCAGGUAGGUCGCUGCCACUAGC [EAB NP+V+V2 #5]”, the “apparent KD of MS2 coat protein” value (input ligand: arginine 13.2 mM) amounted to 31.6 nM; the “apparent KD of MS2 coat protein” value (input ligand: none) turned out to be 35.1 nM; the “apparent KD of MS2 coat protein” value under setting [1] amounted to 44.8 nM; the “apparent KD of MS2 coat protein” value under setting [2] worked out at 34 nM; the “apparent KD of MS2 coat protein” value under setting [3] is 32.5 nM.
As for “GCUCACAUGAGGAUCACCCAUGUACGUCCGCGAGGACCGGUACGGCCGCCACUCGUGUUAGCUUCAAACUUGUUAGUGUUAAACA [Atleerge]”, the “apparent KD of MS2 coat protein” value turned out to be 31.3 nM (input ligand: arginine 13.2 mM), 53.4 nM under setting [1] and 68.4 nM under setting [2].
On to “GGACUAACCAGAAGGAGCGGCACAAGCAGAAACUGCAAUCCUCCGCACGAGGAUCACCCGUGUCAGGUAGGUCGCUGGUUAGUCG [ArgBX 28]”, for which the “apparent KD of MS2 coat protein” value (input ligand: arginine 13.2 mM) came out at 49.2 nM; the “apparent KD of MS2 coat protein” value (input ligand: none) worked out at 56.8 nM; the “apparent KD of MS2 coat protein” value under setting [1] was determined as 74.6 nM; the “apparent KD of MS2 coat protein” value under setting [2] came out at 80.4 nM; the “apparent KD of MS2 coat protein” value under setting [3] turned out to be 63.7 nM.
As to “GGACUAACCAGAAGGAGCGGCACGCAGAAACUGCAAAAUCCUCCGCACGAGGAUCACCCGUGUCAGGUAGGUCGCUGGUUAGUCG [ArgBX 28]”, the “apparent KD of MS2 coat protein” value (input ligand: arginine 13.2 mM) was determined as 36.7 nM; the “apparent KD of MS2 coat protein” value (input ligand: none) worked out at 32.2 nM; the “apparent KD of MS2 coat protein” value under setting [1] was 39.8 nM; the “apparent KD of MS2 coat protein” value under setting [2] worked out at 37.8 nM; the “apparent KD of MS2 coat protein” value under setting [3] worked out at 33.8 nM.
Regarding “GGAUAGAUAGGAGAUACCAGAUACAUCAACAUGAGGAUCACCCAUGUGUCUGCACUAAGUGUCCCUUGGCAGCUCGGAGAUCUGA [#16 Same State - Theophylline B]”, the “apparent KD of MS2 coat protein” value amounted to 24 nM (input ligand: arginine 13.2 mM), 33.7 nM under setting [1] and 32.4 nM under setting [3].
Take “GGAUAGGACACGGCCGCCACUAGCUAGGAUACUAGCAACAUUUCCUCGCUUGAGGAUCACCCAAGUAGGACCGGGUGUCCUAUCG”: the “apparent KD of MS2 coat protein” value is, setting by setting: (input ligand: arginine 13.2 mM) 302 nM; (input ligand: none) 560 nM; under setting [1], 446 nM; under setting [2], 476 nM; under setting [3], 482 nM.
Regarding “GGAUAGGACACGGCCGCCACUGCGCUAGGAUACUAGAACAUUUCCUCACAUGAGGAUCACCCAUGUAGGACCGGGUGUCCUAUCG”, the “apparent KD of MS2 coat protein” value is 34 nM (input ligand: arginine 13.2 mM), 76.7 nM under setting [1] and 60.4 nM under setting [2].
In the case of “GGAUAGGACAGAAGGAGCGACAUGGCAGAAACUGCAAUCCUCCUACACGAGGAUCACCCGUGUCAGGUAGGUCGCUGUCCUAUCG [ArgXB 12 #Zipper #MS2Left #StaticStem #Blueprint]”, the “apparent KD of MS2 coat protein” value worked out at 25.6 nM (input ligand: arginine 13.2 mM); 24.7 nM (input ligand: none); 34.8 nM under setting [1]; 36.9 nM under setting [2]; 27.4 nM under setting [3].
Regarding “GGAUUCGGCACGGCCGCCACUGCGGUGGUGUGACAUGAGGAUCACCCAUGUUGUCAUGCGGCCCUUAGGACCGGGUGGCGUUUCC [#1 Exclusion - Tryptophan B Attempt #21 (HarryS)]”, the “apparent KD of MS2 coat protein” value reads like this: (input ligand: arginine 13.2 mM) 47.1 nM; under setting [1], 76.2 nM; under setting [2], 73.3 nM.
The like results for “GGCAAAAGGUCGGCCGCCACUGUAGGAUGUGUUCUUUCACAUGAGGAUCACCCAUGUUGUUAUUAUAGGACCGGGAUUUUAGGAC [39MS split4]” were, in that order, 20.6 nM, 31.7 nM and 23.4 nM.
As for “GGCCAAAAGGCGGCCGCCACUCAAGAGUAGCAUGGAAAGACAUGAGGAUCACCCAUGUAAAGAAAGAGGACCGGGCCAAAAGGCC”, the “apparent KD of MS2 coat protein” value (input ligand: arginine 13.2 mM) amounted to 28.4 nM; the “apparent KD of MS2 coat protein” value (input ligand: none) is 117 nM; the “apparent KD of MS2 coat protein” value under setting [1] turned out to be 141 nM; the “apparent KD of MS2 coat protein” value under setting [2] was determined as 262 nM; the “apparent KD of MS2 coat protein” value under setting [3] is 193 nM.
Consider “GGCGCGAGCCAACAUGAGGAUCACCCAUGUCGAGGACCGGUACGGCCGCCACUCGAACGAGUGGCGCGCGCGCGCGCGCGCGCGC [Vaa]”, for which the “apparent KD of MS2 coat protein” value came to 12.2 nM (input ligand: arginine 13.2 mM); 15.9 nM (input ligand: none); 17.9 nM under setting [1]; 19 nM under setting [2]; 28.6 nM under setting [3].
Take “GGCGCUGCGUCGGCCGCCACUAGCGGGUAAUGGGUGUACAUGAGGAUCACCCAUGUAAUAUGGCCUAGGACCGGGACGUGGCGCC [Moose]”: the “apparent KD of MS2 coat protein” value (input ligand: arginine 13.2 mM) worked out at 259 nM; the “apparent KD of MS2 coat protein” value (input ligand: none) is 427 nM; the “apparent KD of MS2 coat protein” value under setting [1] is 415 nM; the “apparent KD of MS2 coat protein” value under setting [2] amounted to 465 nM; the “apparent KD of MS2 coat protein” value under setting [3] worked out at 620 nM.
For the sequence “GGGAAAGAAUGUGAUACCAGAGAACCGGUCUCCAUCAAUAUACAUGAGGAUCACCCAUGUCUCCCUUGGCAGCACCAUCAUCAAA [Exclusion Theophylline B GF 27]”, the “apparent KD of MS2 coat protein” value stood at 21 nM (input ligand: arginine 13.2 mM), 28.3 nM under setting [1] and 22 nM under setting [3].
“GGGAGGUAGGCGGCCGCCACUGAUUUUCAUAUAUAUAUAACAUGAGGAUCACCCAUGUAGAUAUACAGGACCGGGCCUAUUUUUU [aaaF]”: the “apparent KD of MS2 coat protein” value is, setting by setting: (input ligand: arginine 13.2 mM) 30.2 nM; (input ligand: none) 18.8 nM; under setting [1], 21.9 nM; under setting [2], 18.2 nM; under setting [3], 14.2 nM.
For “GGGCAAGAGGGAAGGAGCGUCGGCUGAGUAACAUGAGGAUCACCCAUGUAGCACAUAGUGUGGCAGGUAGGUCGCCCUCUGCCCU [SS-ArgB7]” the same measures were 17.5 nM, 11.3 nM, 16.9 nM, 13.7 nM and 13.2 nM.
For “GGGCAAGAGGGAAGGAGCGUUAGCUGAGUCACAUGAGGAUCACCCAUGUCGCACAUAGUAUGACAGGUAGGUCGCCCUCUACCCU [SS-ArgB14]” the same measures were 17.7 nM, 15.6 nM, 28.7 nM, 18.2 nM and 16.8 nM.
Consider “GGGCCCGGCCGAAAGGCCGGGCCCGCUGAAGGAGCGGGAAAUAACCCAGGUAGGUCGCAGAGAUCCACAUGAGGAUCACCCAUGU [#26 Exclusion - Arginine A]”, for which the “apparent KD of MS2 coat protein” value (input ligand: arginine 13.2 mM) was 38.7 nM; the “apparent KD of MS2 coat protein” value (input ligand: none) turned out to be 26.5 nM; the “apparent KD of MS2 coat protein” value under setting [1] was 64.1 nM; the “apparent KD of MS2 coat protein” value under setting [2] is 68.1 nM; the “apparent KD of MS2 coat protein” value under setting [3] came to 44.4 nM.

The record behind these values is the supplement of paper PMC9170038.
